Reference: the domain aggregation screens of Martell et al. (2025)

Assay: soluble fraction after stress (log2 fold change); higher = more stays soluble; pooled small domains, quantitative proteomics
Conditions: stress: 50 degC
Outline: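 Pooled custom libraries of small protein domains were each held under stress at 50°C. The read-out, high-throughput quantitative proteomics, tracked how much of each protein stayed soluble. This is reported as a base-two log fold change used to indicate aggregation propensity. Higher values mean more protein remains in solution.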

| Sequence | soluble fraction (log2) |
| --- | --- |
| HMTVAEVEDRMEASRVRQALDAVGEPHRTTIALAYFTGLTHTEIAQRMGVPLGTVKSRIRDGMAKMRTHLG | -0.617 |
| HMTVDHDERRSMILEAFMRLAAREGLHAVSLRGVAAEAGISLRLVQYYFETKARLMQSGLTALET | -0.281 |
| HMTVKKLIINEDNSGRRIDNYLLSIFNSVPRSKIYNIIRKGEVRVNSSRIKPSYRLEEGDQVRIPPNLDYT | -1.04 |
| HMTVKRNILQELLKTAFKHPEDFRPSKTFYGETGIGQKRFWALYYGHKAVTQKEYYAVADYLG | -0.0349 |
| HMTVLDYNENVLSKVMNAAEINDSDKEAFIAFAKDYNSDDNLYLKKEELETAAGAWNARNVE | 0.358 |
| HMTVLTDEIKVILISYIKENDFKKKHGNRKMMMTAQDMYDELVEKGYKISYPTVTQYVQKYRENETT | -1.27 |
| HMTVMTGSQRRKKILELMRDAKEPLSGGALGKETGVSRHVVVQDIALLRTQGYPIVATARGYIINE | -0.212 |
| HMTVRLSVSADGKFFWNESQVSEEELFPRLQAEAAKEPQPDLHIRGDKNVRYEFVAQAMAAAQRAGVRKI | -0.404 |
| HMTVSADQTAADAVIKLINAIGTVSENSGSAISAARSGYDALTDTQKKLVTNYNKLTQAEQVFSSLPS | 0.203 |
| HMTVSGNIAGDYKDYLPQKTDVINGMTVTYRMVDDAVYLASWKHAGQNHVFLFNDPVSVERAREMI | -0.577 |
| HMTVSIDSLFDKFEDLQEQGLGDKTEEGQELRGLIRAFIEQEHLSVRITRSTSNQELLDMIEEAMQ | -1.45 |
| HMTVSRRYTENEMETALKAYLATHNFISRRDMQQEFALTIYSARKWLNHFVDVGLIERIGLKNAPIYKL | -0.4 |
| HMTVTKYGKKILEIVSSSRSHMTAEEIFDALRQTYPTVVLATVYNNLNRLWQDDLIRKVSVEGMPDRYD | -1.22 |
| HMTVVPNIVNQPEAAGTNLLISSNLKPGNRAVQYSDTVKAGDIISQSPEPGAQATLGGKVDYVISQGPAPT | 0.165 |
| HMTWIAEIELRLMGNGAVTGAKIVKSTDLKDVDAAIYRAALEASPYPAPESGIGGRFTIKLKY | 0.198 |
| HMTYLIKFDENGRRSDTYVAEEKTQEQVTELLEKGFVLITEEDYQLLVGNVDGKEYIRNADGTYSEYT | -0.0279 |
| HMTYMWTTDGVNLRSEPNTDSAVVTVLGVGTQVRMIGEEDGWVKVSFNDQEGYIRADFLTTE | -0.0926 |
| HMTYSAFITARNKRIAEEYSVLLDSLNISNNVIYRLGSWVVEVNVSDHSRAIDEIYSYERSGRIDKV | -0.498 |
| HMTYYEGYYRKNQKGFGFVIVDGRDEDIYIDAKNMNGALNNDLVVVEELKGQNGKKTEGRVVKVLKKE | -0.185 |
| HMVADLSGVGDKDIIVDQFIYHEVLPKETIYSIVKSFNVTSEDLNKNNPFLRANGLRIGQVIRIPLKI | -1.08 |
| HMVAEPTYGRTTDVLNIRSGPSTDDERIGQLSRGAVVTILEEKDGWYRLQRGYISADYVTQISAEEASNS | -0.221 |
| HMVAEPVYGKVTEGPLNVRSAPSTDSEKVDSFSTGKVLTILETLDGWYKVEEGYVSADYVTIIDAAEAASS | 0.00408 |
| HMVAGHLSEKKGYYYAVLNYKDYTGKRKSKWVSTGLPVKGNKRRAEKILADIKRDFVPEEPKR | -0.596 |
| HMVAGQDPVKRQQILDGAKRVFLGVGFDAASMNDITREAGVSKGTIYVYFGSKEELFGALIDR | -0.663 |
| HMVAMLDASYRGVMQTISTLLAQGNTERAYDEAVNARGQMSKQQWNNLANLIWERTGQKIDSGVSYK | 0.139 |

| Sequence | soluble fraction (log2) |
| --- | --- |
| HMVDEAQSLERNVLLTVLSRIGRDSRVVLTHDIAQRDNLRVGRHDGVVAVVDRLKGHPLFAHVTL | 0.012 |
| HMVDERMVTYINSLDKGNTPFLNELEKEALANYVPIIRREMQSFLKVLLQIKAPLRILEVGTAVGFSTILM | 0.199 |
| HMVDGAHKQQAAVQALTPALKVLAAAPEGKKGQAIQALRAVLKQHGRWLDDATAQQVHEQLLAAGDAQGWQ | 0.297 |
| HMVDIGQSIRVELIREGKDSHQAVGYLRDGSMVVVNHGRKLIGSTVEVEITSIVPSSAGKVIFAEYLE | -0.378 |
| HMVDIQTGQKVRIHTSQFAGKIGNITALNVKSAELPNGIRTATASILMQSNENVMLPVSNFDIIE | 0.0434 |
| HMVDIVLDILKIVAEKQPGNQFSQSILMQYQERGGLSKKQLEGLYGKAKRIPEIPQNKLATLEAIILR | -1.41 |
| HMVDKNDLTAIDGIGPFLEKKLNDVGVFTYADIAGWDAAKIEEITQQISFFEGRIEKDDWVGQAQKLIDDQ | -0.157 |
| HMVDKSYIHNQQVASDTWTVQHNLGKYPAVSVADTGNNEVYGDVRHINENTVELKFSHPFSGVAFF | 0.281 |
| HMVDKTMYDRYAVDDYVRVIDGPLVGTEGRIIELDRETGNVKIEAVFFGRVTTADINFALIEKVD | 0.0531 |
| HMVDLDIENYELEDILNLFRLQYNFVEADLKRAYRMALKLHPDKSGLDGEYFRFYMKAYKIVENIFNFRNR | -1.78 |
| HMVDSVIGSVGRVTVDIDNVEALGQVKLGGMEWSARSTSGDPIPAGTEVRVDRVEGVKVFVTPV | -0.00113 |
| HMVDVEMLTTVSDHIEAKLLQGILENHGIPSYSVDEESGEYMRVYMGYSIFGEKIYVRASDLLAAQGYL | -2.25 |
| HMVDWTFPVLVKDVVMMGRYGHMGFLRIPGKKDFESVDNALAKVGMVEYAKQQIGELSGGQR | -0.0772 |
| HMVDYSMEDSVWNNKKEHVNEWFDANPEHEGRRVIVDGLFAIGDAQPDLRKRHWSSISVVFADLDNSPIG | -0.356 |
| HMVEDPADNQKAADAVIKKISEIGEVTESSENLIKEARASYDALTDNQKELVTNYDVLVQAEAQLENIKD | -0.0306 |
| HMVEEVDYGTFMRMIEEKNIGKVEVRAGEIVFTDKDEKQIYKTGAMEDATLTQRLYESGAEFSKDV | 0.0146 |
| HMVEGVSLVEIYVDENSKYNGKLLSEIPKKENTLVIMIQRGEQVIIPHGNIRLESGDMLVVSKTEI | -0.649 |
| HMVEKNALSEEIEGYVNKYGKDRSSLMPVLQAIQRKHSYINDFAQQEVARLLDIHPVEVFSVISFYSFLH | -1.79 |
| HMVEKRLFPQISDAGKRLDLFLAGALAISRTMVVKIIKDGGVLVNGKAAKASYRLAGDEELLVSYEEP | 0.395 |
| HMVEMPEVGVKVRIEVESHNGSTNFEGIVLHPASKGHLTLKLINGYNASYLIEEIRNLEIIDSS | -0.271 |
| HMVENATPEEREALNDIAMEAMGMVKDGKPTSAREFVQSQNLDNDQKILLWSLLDAPTRSALKTAEK | -0.133 |
| HMVEPIKAPMPGMVLKILVEPGQQIEKGQGVLILEAMKMENVLKSSAAATVKSIKVSEKSAVEKGAILVEL | -0.109 |
| HMVEQVEISILPGEYSDTISQKLLDAGLIDDKAAFSKYINDTNVDNLIQPGTFTVPKGASYEEVAKILT | 0.212 |
| HMVERRVRFTVAPGNAGLRLDLFLTAREIGLSRTQVGRAVDEGQIQVNGRPGRAGRKLKTGDVVAIVLPA | -0.783 |
| HMVESLTDRELQILSLAAKGYTNKAIAVQLGISDRTVQNHLANTFQKLNAESRTEAVMRAVSLGLISA | -0.213 |

| Sequence | soluble fraction (log2) |
| --- | --- |
| HMVETVQVVGAGQDIMPGSRINYSSLHYITVPRSYFHEDMFAKNNLVVGRIARAYVAKGEPLLAASLMPK | -2.54 |
| HMVEVPYSEFLKELDAGNVKDVYVSNGESQIQFTKKDQKQWNLSYKTGPIPGDDLVKRLQNADVENFT | 0.0879 |
| HMVEVTTDEITRPGAMVSGSVTFSDGVKAIWLIDEYGRPGLEPETPGYQPSESDLSEFEKHLRALLQ | 0.0647 |
| HMVEVVDAEKLEERLSKVFSAAVLLEIYNENPAHGKEYAYLFTARKNAVEEMIENGQMKRETWEAK | -0.963 |
| HMVFSKEELLFNSDSLLSLYPNDNKLLETILSEKIDHAVKNNDMSMYKEILVIDPKNPLANYHLLM | 0.0579 |
| HMVFTEEERAEYREKMLDAGFDLLKQYGMTHMSVAKITEAAGIGVSTFYNFFSSKEEYVYEVLQYRRRK | -1.25 |
| HMVGIVQKTFEPTGIAAEELMKTLKSDKSLDFGNVQILATPKSSTSRQVVVVSGRANDVDRVMMVLSNLDS | -0.108 |
| HMVGKIVVPHLEGKPAEMARDILARDGFKSVHEEVLPSAEFGAGRVVRTEPHAGTNVAKTDPVTIFVSVGL | -0.00887 |
| HMVGLTDLQRNVLVQIARGKSRQLISRTLKVTPAEISAALKVAQRRYRVASSTEVIVQALYDKTLSFHEIM | -0.625 |
| HMVIIPNILNKYKGLAFRQLEQVGLKIGDTIYEPNIQRDAVLRMQINGRSVQPGDQVMRFSVVDLVIG | -3.21 |
| HMVINKRELNVLSIYSRGSEKRAIILFPTGQTKLVKVGDTLNGGRVAAIGTTEIRYIKGGNNLVLKIPQ | -2.41 |
| HMVINVNEIIRRIKELKTFKTDRQVADFLGVSKATVSNWMARNSIDFPLLINKLDGVDLTWLLTGRGTPE | -1.16 |
| HMVIPATPTARRAKIAGLLADRSVRSQGELLTLLADAGIEVTQATLSRDLEALGAVKVRDGRGLVYAVPG | -0.0411 |
| HMVIQRQIPPLVTRMLDGLEQFIQLDMPFDLDTRLGNIEAVRANMDRSDVTSAEAYRQVLELYSIELQ | -0.2 |
| HMVISLREINLIGVYGRPNARRALVRLSNGRYVRVEVGSDLDGGKVTAIGDEALNFVKRGRTYAIQLPA | -1.55 |
| HMVITPESVKEQVLAIISKSPAQGFNYKQISKRLNINDPSERKMVSDILRELSESGTIEEINKGKYRAKV | -0.0556 |
| HMVKDYIQVTVNKEPVILKGKKDYIFIDIFNYIEFDLTIPKGSLYLLLNGKNAGYHDKLLDGDVIELGW | -1.72 |
| HMVKLDDLTGQDKASAEAAISNLGLKYSEQQEYSDEIEEGKVTRTDPGAGSTSLKAGDTVTVYISRGPE | 0.21 |
| HMVKLSATVKELLDFVIAKKTVTSSNVSKHFDISAQNASGRLKKLHATGLVLGQKEVAESGGLEFVYRS | -0.183 |
| HMVKLSDGIVEHIKSLIMAGRLKPGDKLPPEREFAATLGVSRTALREAVRTLSLMGLLDARQGEGTFVSG | -0.116 |
| HMVKPQANTIYKEYIKYRANLQNKNEFLSFSEYAKQKHNLEQMSEIMVDANLKEEMLETLKEMS | 0.0362 |
| HMVKSDLVGHRFILVEDVTPKLTPKYHYSGINWKLITTDNLVAGTRVEVIQVDVGKFHIKAIK | -1.65 |
| HMVKSIDEIYNEAVKSLANEDYDAAKKLFNYLINNFSDPDKFPLSLFWLAEIEFSSSNFDASKNYYMQ | 0.0746 |
| HMVKSSVTEVISMINALPVTVKPEDKADIISARMAYDTLTEDEKALVTNYEILTAAETRFNELIATT | 0.205 |
| HMVKTIINGEEKDFDAQDFQTFGDFLKKVIPEGQILKSLKINSKDVPIAFIDELKSATVDENITIEMELA | 0.429 |
